The test system of data set [1] is HeLa Kyoto. The data set can be described thus: thermal stability score vs G1/S (z-score of summed log2 fold changes over temperatures); higher = more thermally stable than in G1/S.
Data set [2] has as its system HeLa Kyoto. The data set can be described thus: melting temperature (median over replicates), in situ; higher = more thermally stable.
Data set [3] relates to HeLa Kyoto. The data set can be described thus: solubility in G1/S (NP-40 vs SDS abundance) (log2 ratio); higher = more soluble. The following applies: cell cycle stage: G1/S.
For data set [4], the system named is HeLa Kyoto. Briefly: solubility change mitosis vs G1/S (difference of NP-40 vs SDS log2 ratios) (log2 ratio difference); higher = more soluble in mitosis.
[5] abbreviates: cell cycle stage: early G1 (4.5 h after nocodazole release).
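Throughout, for melting temperature (median over replicates), in situ: HeLa Kyoto cells synchronized by double thymidine or nocodazole block, proteins quantified by TMT10plex mass spectrometry, three independent biological replicates.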
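Throughout, for solubility change mitosis vs G1/S (difference of NP-40 vs SDS log2 ratios): synchronized HeLa Kyoto cells (double thymidine block for G1/S, nocodazole release for mitosis), protein amounts in NP-40 versus SDS lysates quantified by mass spectrometry, three biological replicates.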
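Throughout, for solubility in G1/S (NP-40 vs SDS abundance): HeLa Kyoto cells arrested at G1/S by double thymidine block, proteins quantified by TMT10plex mass spectrometry in mild NP-40 versus SDS extracts, three biological replicates.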
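Throughout, for thermal stability score vs G1/S (z-score of summed log2 fold changes over temperatures): synchronized HeLa Kyoto cells, proteins quantified by TMT10plex mass spectrometry, three biological replicates, mitosis taken 0.5 h after nocodazole release, G1/S directly after double thymidine block.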

As to “MAECGRGGAAGGALPTSPGPALGAKGALKAGVGEGGGGGGRLGHGRARYDSGGVSNGDCSLGVSGDEARASPTRGPRGVALAPTPSAVVCTLPRESKPGGLPRRSSIIKDGTKQKRERKKTVSFSSMPTEKKISSASDCINSMVEGSELKKVRSNSRIYHRYFLLDADMQSLRWEPSKKDSEKAKIDIKSIKEVRTGKNTDIFRSNGISDQISEDCAFSVIYGENYESLDLVANSADVANIWVTGLRYLISYGKHTLDMLESSQDNMRTSWVSQMFSEIDVDNLGHITLCNAVQCIRNLNPGLKTSKIELKFKELHKSKDKAGTEVTKEEFIEVFHELCTRPEIYFLLVQFSSNKEFLDTKDLMMFLEAEQGVAHINEEISLEIIHKYEPSKEGQEKGWLSIDGFTNYLMSPDCYIFDPEHKKVCQDMKQPLSHYFINSSHNTYLIEDQFRGPSDITGYIRALKMGCRSVELDVWDGPDNEPVIYTGHTMTSQIVFRSVIDIINKYAFFASEYPLILCLENHCSIKQQKVMVQHMKKLLGDKLYTTSPNVEESYLPSPDVLKGKILIKAKKLSSNCSGVEGDVTDEDEGAEMSQRMGKENMEQPNNVPVKRFQLCKELSELVSICKSVQFKEFQVSFQVQKYWEVCSFNEVLASKYANENPGDFVNYNKRFLARVFPSPMRIDSSNMNPQDFWKCGCQIVAMNFQTPGLMMDLNIGWFRQNGNCGYVLRPAIMREEVSFFSANTKDSVPGVSPQLLHIKIISGQNFPKPKGSGAKGDVVDPYVYVEIHGIPADCAEQRTKTVHQNGDAPIFDESFEFQINLPELAMVRFVVLDDDYIGDEFIGQYTIPFECLQTGYRHVPLQSLTGEVLAHASLFVHVAITNRRGGGKPHKRGLSVRKGKKSREYASLRTLWIKTVDEVFKNAQPPIRDATDLRENMQNAVVSFKELCGLSSVANLMQCMLAVSPRFLGPDNTPLVVLNLSEQYPTMELQGIVPEVLKKIVTTYDMMIQSLKALIENADAVYEKIVHCQKAAMEFHEHLHSIGTKEGLKERKLQKAVESFTWNITILKGQADLLKYAKNETLENLKQIHFAAVSCGLNKPGTENADVQKPRRSLEVIPEKANDETGE [PLCL2]”, the thermal stability score with HeLa Kyoto [1] (setting [5]) is -0.0105; with HeLa Kyoto [1] (cell cycle stage: mitosis), -0.32. In addition, the melting temperature is 50.4 °C with HeLa Kyoto [2] (cell cycle stage: G1/S) and 50.2 °C in the data set on HeLa Kyoto [2] (cell cycle stage: mitosis). Besides, the “solubility in G1/S (log2)” value with HeLa Kyoto [3] is -0.0622. The “solubility change mitosis (log2)” value in the data set on HeLa Kyoto [4] is -0.105.
“MAEERPGAWFGFGFCGFGQELGSGRGRQVHSPSPLRAGVDICRVSASWSYTAFVTRGGRLELSGSASGAAGRCKDAWASEGLLAVLRAGPGPEALLQVWAAESALRGEPLWAQNVVPEAEGEDDPAGEAQAGRLPLLPCARAYVSPRAPFYRPLAPELRARQLELGAEHALLLDAAGQVFSWGGGRHGQLGHGTLEAELEPRLLEALQGLVMAEVAAGGWHSVCVSETGDIYIWGWNESGQLALPTRNLAEDGETVAREATELNEDGSQVKRTGGAEDGAPAPFIAVQPFPALLDLPMGSDAVKASCGSRHTAVVTRTGELYTWGWGKYGQLGHEDTTSLDRPRRVEYFVDKQLQVKAVTCGPWNTYVYAVEKGKS [RCCD1]”: the thermal stability score was -0.546 with HeLa Kyoto [1] (setting [5]) and -1.48 with HeLa Kyoto [1] (cell cycle stage: mitosis). Further, the values for the melting temperature in the data set with HeLa Kyoto [2] (cell cycle stage: G1/S) and in the data set with HeLa Kyoto [2] (cell cycle stage: mitosis) were 51.8 °C and 54 °C, respectively. Also, in the data set with HeLa Kyoto [3], the “solubility in G1/S (log2)” value is 0.0194. For the same sequence, the “solubility change mitosis (log2)” value with HeLa Kyoto [4] was -0.0463.
As for “MAEGDEAARGQQPHQGLWRRRRTSDPSAAVNHVSSTTSLGENYEDDDLVNSDEVMKKPCPVQIVLAHEDDHNFELDEEALEQILLQEHIRDLNIVVVSVAGAFRKGKSFLLDFMLRYMYNKDSQSWIGGNNEPLTGFTWRGGCERETTGIQVWNEVFVIDRPNGTKVAVLLMDTQGAFDSQSTIKDCATVFALSTMTSSVQVYNLSQNIQEDDLQHLQLFTEYGRLAMEEIYQKPFQTLMFLIRDWSYPYEHSYGLEGGKQFLEKRLQVKQNQHEELQNVRKHIHNCFSNLGCFLLPHPGLKVATNPSFDGRLKDIDEDFKRELRNLVPLLLAPENLVEKEISGSKVTCRDLVEYFKAYIKIYQGEELPHPKSMLQATAEANNLAAVAGARDTYCKSMEQVCGGDKPYIAPSDLERKHLDLKEVAIKQFRSVKKMGGDEFCRRYQDQLEAEIEETYANFIKHNDGKNIFYAARTPATLFAVMFAMYIISGLTGFIGLNSIAVLCNLVMGLALIFLCTWAYVKYSGEFREIGTVIDQIAETLWEQVLKPLGDNLMEENIRQSVTNSIKAGLTDQVSHHARLKTD [ATL2]”, the thermal stability score was -0.416 with HeLa Kyoto [1] (setting [5]) and -0.584 in the data set with HeLa Kyoto [1] (cell cycle stage: mitosis). Moreover, the melting temperature with HeLa Kyoto [2] (cell cycle stage: G1/S) and with HeLa Kyoto [2] (cell cycle stage: mitosis) was 51.8 °C each time. The “solubility in G1/S (log2)” value with HeLa Kyoto [3] was -0.0336. The “solubility change mitosis (log2)” value in the data set on HeLa Kyoto [4] was -0.192.
In the case of “MAEGEDVPPLPTSSGDGWEKDLEEALEAGGCDLETLRNIIQGRPLPADLRAKVWKIALNVAGKGDSLASWDGILDLPEQNTIHKDCLQFIDQLSVPEEKAAELLLDIESVITFYCKSRNIKYSTSLSWIHLLKPLVHLQLPRSDLYNCFYAIMNKYIPRDCSQKGRPFHLFRLLIQYHEPELCSYLDTKKITPDSYALNWLGSLFACYCSTEVTQAIWDGYLQQADPFFIYFLMLIILVNAKEVILTQESDSKEEVIKFLENTPSSLNIEDIEDLFSLAQYYCSKTPASFRKDNHHLFGSTLLGIKDDDADLSQALCLAISVSEILQANQLQGEGVRFFVVDCRPAEQYNAGHLSTAFHLDSDLMLQNPSEFAQSVKSLLEAQKQSIESGSIAGGEHLCFMGSGREEEDMYMNMVLAHFLQKNKEYVSIASGGFMALQQHLADINVDGPENGYGHWIASTSGSRSSINSVDGESPNGSSDRGMKSLVNKMTVALKTKSVNVREKVISFIENTSTPVDRMSFNLPWPDRSCTERHVSSSDRVGKPYRGVKPVFSIGDEEEYDTDEIDSSSMSDDDRKEVVNIQTWINKPDVKHHFPCKEVKESGHMFPSHLLVTATHMYCLREIVSRKGLAYIQSRQALNSVVKITSKKKHPELITFKYGNSSASGIEILAIERYLIPNAGDATKAIKQQIMKVLDALES [TBC1D23]”, the thermal stability score with HeLa Kyoto [1] (setting [5]) worked out at 0.43; with HeLa Kyoto [1] (cell cycle stage: mitosis), 0.147. Moreover, the melting temperature with HeLa Kyoto [2] (cell cycle stage: G1/S) came out at 50.5 °C; in the data set with HeLa Kyoto [2] (cell cycle stage: mitosis), 50 °C. For the same sequence, in the data set with HeLa Kyoto [3], the “solubility in G1/S (log2)” value is 0.0926. Further, the “solubility change mitosis (log2)” value in the data set with HeLa Kyoto [4] is 0.0232.
With “MAEHPPLLDTTQILSSDISLLSAPIVSADGTQQVILVQVNPGEAFTIRREDGQFQCITGPAQVPMMSPNGSVPPIYVPPGYAPQVIEDNGVRRVVVVPQAPEFHPGSHTVLHRSPHPPLPGFIPVPTMMPPPPRHMYSPVTGAGDMTTQYMPQYQSSQVYGDVDAHSTHGRSNFRDERSSKTYERLQKKLKDRQGTQKDKMSSPPSSPQKCPSPINEHNGLIKGQIAGGINTGSAKIKSGKGKGGTQVDTEIEEKDEETKAFEALLSNIVKPVASDIQARTVVLTWSPPSSLINGETDESSVPELYGYEVLISSTGKDGKYKSVYVGEETNITLNDLKPAMDYHAKVQAEYNSIKGTPSEAEIFTTLSCEPDIPNPPRIANRTKNSLTLQWKAPSDNGSKIQNFVLEWDEGKGNGEFCQCYMGSQKQFKITKLSPAMGCKFRLSARNDYGTSGFSEEVLYYTSGCAPSMPASPVLTKAGITWLSLQWSKPSGTPSDEGISYILEMEEETSGYGFKPKYDGEDLAYTVKNLRRSTKYKFKVIAYNSEGKSNPSEVVEFTTCPDKPGIPVKPSVKGKIHSHSFKITWDPPKDNGGATINKYVVEMAEGSNGNKWEMIYSGATREHLCDRLNPGCFYRLRVYCISDGGQSAVSESLLVQTPAVPPGPCLPPRLQGRPKAKEIQLRWGPPLVDGGSPISCYSVEMSPIEKDEPREVYQGSEVECTVSSLLPGKTYSFRLRAANKMGFGPFSEKCDITTAPGPPDQCKPPQVTCRSATCAQVNWEVPLSNGTDVTEYRLEWGGVEGSMQICYCGPGLSYEIKGLSPATTYYCRVQALSVVGAGPFSEVVACVTPPSVPGIVTCLQEISDDEIENPHYSPSTCLAISWEKPCDHGSEILAYSIDFGDKQSLTVGKVTSYIINNLQPDTTYRIRIQALNSLGAGPFSHMIKLKTKPLPPDPPRLECVAFSHQNLKLKWGEGTPKTLSTDSIQYHLQMEDKNGRFVSLYRGPCHTYKVQRLNESTSYKFCIQACNEAGEGPLSQEYIFTTPKSVPAALKAPKIEKVNDHICEITWECLQPMKGDPVIYSLQVMLGKDSEFKQIYKGPDSSFRYSSLQLNCEYRFRVCAIRQCQDSLGHQDLVGPYSTTVLFISQRTEPPASTNRDTVESTRTRRALSDEQCAAVILVLFAFFSILIAFIIQYFVIK [FNDC3A]”, the thermal stability score came out at 1.05 in the data set on HeLa Kyoto [1] (setting [5]) and 2.65 in the data set with HeLa Kyoto [1] (cell cycle stage: mitosis). The melting temperature was found to be 48.7 °C with HeLa Kyoto [2] (cell cycle stage: G1/S) and 49.1 °C in the data set on HeLa Kyoto [2] (cell cycle stage: mitosis). Besides, in the data set on HeLa Kyoto [3], the “solubility in G1/S (log2)” value is -0.111. In addition, the “solubility change mitosis (log2)” value in the data set on HeLa Kyoto [4] was -0.0736.
Take “MAEMATATRLLGWRVASWRLRPPLAGFVSQRAHSLLPVDDAINGLSEEQRQLRQTMAKFLQEHLAPKAQEIDRSNEFKNLREFWKQLGNLGVLGITAPVQYGGSGLGYLEHVLVMEEISRASGAVGLSYGAHSNLCINQLVRNGNEAQKEKYLPKLISGEYIGALAMSEPNAGSDVVSMKLKAEKKGNHYILNGNKFWITNGPDADVLIVYAKTDLAAVPASRGITAFIVEKGMPGFSTSKKLDKLGMRGSNTCELIFEDCKIPAANILGHENKGVYVLMSGLDLERLVLAGGPLGLMQAVLDHTIPYLHVREAFGQKIGHFQLMQGKMADMYTRLMACRQYVYNVAKACDEGHCTAKDCAGVILYSAECATQVALDGIQCFGGNGYINDFPMGRFLRDAKLYEIGAGTSEVRRLVIGRAFNADFH [IVD]”: the thermal stability score is -0.748 in the data set on HeLa Kyoto [1] (setting [5]) and -4.11 in the data set on HeLa Kyoto [1] (cell cycle stage: mitosis). Besides, the melting temperature with HeLa Kyoto [2] (cell cycle stage: G1/S) amounted to 54 °C; in the data set on HeLa Kyoto [2] (cell cycle stage: mitosis) it was 53.8 °C. In addition, the “solubility in G1/S (log2)” value in the data set with HeLa Kyoto [3] is 0.138. Further, the “solubility change mitosis (log2)” value in the data set on HeLa Kyoto [4] was -0.107.

Source of the values: the supplement of paper PMC5998384.
